Consider five molecules from US20050065327A1 (AstraZeneca / MedImmune, published 2005).

What all share (assay): cell-based or functional assay
Assay [1] has as its target non-human primate IL-13 (rhesus and cynomolgus, identical sequences) with carboxyl terminus affinity tag … (rhesus and cynomolgus monkey).
Assay [2] deals with human IL-13 (recombinant, bacterially derived, Peprotech) (human, UniProt P35225 15-146).
The target in assay [3] is native (naturally occurring) human IL-13 released from HDLM-2 cells (human, UniProt P35225 15-146).
Chain of native (naturally occurring) human IL-13 released from HDLM-2 cells (P35225 other isoform, or with tags, fused parts or gaps): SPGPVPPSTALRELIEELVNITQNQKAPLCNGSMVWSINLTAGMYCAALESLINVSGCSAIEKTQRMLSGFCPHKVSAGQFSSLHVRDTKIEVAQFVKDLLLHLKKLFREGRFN

Positions count from the first letter of the chain named.

Chain of human IL-13 (recombinant, bacterially derived, Peprotech) (P35225 other isoform, or with tags, fused parts or gaps): as above
Chain of non-human primate IL-13 (rhesus and cynomolgus, identical sequences) with carboxyl terminus affinity tag … (rhesus and cynomolgus monkey) (Q864V6 19-132): as the sequence (P35225 other isoform, or with tags, fused parts or gaps) above, with G3S, P7R, R12K, M44V, S69N, H85R, L102V counted along it

B1: BAK502G9 IgG4 (antibody, V domains shown)
VH: QVQLVQSGAEVKKPGASVKVSCKASGYTFTNYGLSWVRQAPGQGLEWMGWISANNGDTNYGQEFQGRVTMTTDTSTSTAYMELRSLRSDDTAVYYCARDSSSSWARWFFDLWGRGTLVTVSS
VL: SYVLTQPPSVSVAPGKTARITCGGNIIGSKLVHWYQQKPGQAPVLVIYDDGDRPSGIPERFSGSNSGNTATLTISRVEAGDEADYYCQVWDTGSDPVVFGGGTKLTVL
On to B1, for which the “IC50, TF-1 cell proliferation assay” value in assay [1] turned out to be 2 nM.

B2: BAK1183H4 scFv (scFv, V domains shown)
VH: B1 VH with S52N, A53Y, N54D, N55G, D57N, N59Q
VL: B1 VL
With B2, the “Mean TF1 IC50” value in assay [2] was 0.2 nM.

B3: BAK502G9 scFv (scFv, V domains shown)
VH: B1 VH
VL: B1 VL
Regarding B3, in assay [2], the “Mean TF1 IC50” value worked out at 8 nM.

B4: BAK1167F2 scFv (scFv, V domains shown)
VH: B1 VH with T30E, N31Q, Y32T, L34V
VL: B1 VL
With B4, the “Mean TF1 IC50” value in assay [2] was 0.2 nM.

B5: BAK1183H4 IgG4 (antibody, V domains shown)
VH: B1 VH with S52N, A53Y, N54D, N55G, D57N, N59Q
VL: B1 VL
On to B5, for which the “IC50, HDLM-2 cell proliferation assay” value in assay [3] turned out to be 3500 nM.
